Results from paper PMC9814548, “Chemoenzymatic synthesis of 3-ethyl-2,5-dimethylpyrazine by L-threonine 3-dehydrogenase and 2-amino-3-ketobutyrate CoA ligase/L-threonine aldolase” (Communications Chemistry, 2021).

T1: CnKBL (Cupriavidus necator, UniProt Q0K313)
T1 construct: gene kbl; gene cloned in pET-28a (NcoI/XhoI), E. coli BL21(DE3), Ni-Sepharose and gel filtration; dimer; PLP on K246
T1 sequence (Q0K313 1-399): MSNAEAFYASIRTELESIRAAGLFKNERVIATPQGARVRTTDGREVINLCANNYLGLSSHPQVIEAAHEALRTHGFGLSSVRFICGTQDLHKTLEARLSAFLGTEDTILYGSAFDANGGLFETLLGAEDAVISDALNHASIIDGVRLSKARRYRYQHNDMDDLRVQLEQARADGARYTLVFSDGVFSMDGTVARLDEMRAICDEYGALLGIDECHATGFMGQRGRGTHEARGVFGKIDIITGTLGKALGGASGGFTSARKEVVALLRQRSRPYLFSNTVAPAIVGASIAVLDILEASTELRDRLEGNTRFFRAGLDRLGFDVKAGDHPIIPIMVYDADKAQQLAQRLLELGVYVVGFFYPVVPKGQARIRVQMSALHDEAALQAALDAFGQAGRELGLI

B1: CnKBL (Cupriavidus necator H16) (protein)
chain: MSNAEAFYASIRTELESIRAAGLFKNERVIATPQGARVRTTDGREVINLCANNYLGLSSHPQVIEAAHEALRTHGFGLSSVRFICGTQDLHKTLEARLSAFLGTEDTILYGSAFDANGGLFETLLGAEDAVISDALNHASIIDGVRLSKARRYRYQHNDMDDLRVQLEQARADGARYTLVFSDGVFSMDGTVARLDEMRAICDEYGALLGIDECHATGFMGQRGRGTHEARGVFGKIDIITGTLGKALGGASGGFTSARKEVVALLRQRSRPYLFSNTVAPAIVGASIAVLDILEASTELRDRLEGNTRFFRAGLDRLGFDVKAGDHPIIPIMVYDADKAQQLAQRLLELGVYVVGFFYPVVPKGQARIRVQMSALHDEAALQAALDAFGQAGRELGLI
notes: gene cloned in pET-28a (NcoI/XhoI), E. coli BL21(DE3), Ni-Sepharose and gel filtration; dimer; PLP on K246

Key:
[1] = biological target: T1, CnKBL; test: X-ray crystal structure, […] Å; format: binding; conditions: covalent, Schiff base with K246
[2] = substrate: CC(=O)SCCNC(=O)CCNC(=O)[C@H](O)C(C)(C)COP(=O)(O)OP(=O)(O)OC[C@H]1O[C@@H](n2cnc3c(N)ncnc32)[C@H](O)[C@@H]1OP(=O)(O)O; test: purified protein; format: biochemical, Cupriavidus necator; conditions: 100 mM Gly, 50 mM potassium phosphate pH 8.0, 30 °C
[3] = substrate: CCC(O)C(N)C(=O)O; test: purified protein; format: biochemical, Cupriavidus necator; conditions: 50 mM potassium phosphate pH 8.0, 30 °C, no CoA
[4] = substrate: C[C@@H](O)[C@H](N)C(=O)O; test: purified protein; format: biochemical, Cupriavidus necator; conditions: 50 mM potassium phosphate pH 8.0, 30 °C, no CoA
[5] = substrate: C[C@H](O)[C@H](N)C(=O)O; test: purified protein; format: biochemical, Cupriavidus necator; conditions: 50 mM potassium phosphate pH 8.0, 30 °C, no CoA
[6] = substrate: NCC(=O)O; test: purified protein; format: biochemical, Cupriavidus necator; conditions: 1 mM acetyl-CoA, 50 mM potassium phosphate pH 8.0, 30 °C

Molecule	X-ray crystal structure, 1.8 Å [1]	Km [2] [µM]	kcat [2] [s⁻¹]	Km [3] [mM]	kcat [3] [s⁻¹]	kcat/Km [3] [M⁻¹ s⁻¹]	Km [4] [mM]	kcat [4] [s⁻¹]	kcat/Km [4] [M⁻¹ s⁻¹]	Km [5] [mM]	kcat [5] [s⁻¹]	kcat/Km [5] [M⁻¹ s⁻¹]	Km [6] [mM]	kcat [6] [s⁻¹]
Cc1ncc(COP(=O)(O)O)c(C=O)c1O [PLP]	only PLP is coordinated at the site by forming a Schiff base with the side chain	–	–	–	–	–	–	–	–	–	–	–	–	–
B1	–	242.7 ± 10.4	3.43 ± 0.036	0.20 ± 0.056	0.00123 ± 7.17e-05	6.17	1.24 ± 0.11	0.00283 ± 0.0065	2.33	0.42 ± 0.086	0.000778 ± 4.33e-05	1.83	13.9 ± 0.52	3.43 ± 0.036
